Source: the supplement of paper PMC9170038

Tested on: MS2 coat protein
Test: apparent KD of MS2 coat protein; higher = weaker reporter binding
Conditions: Eterna round: R107; input ligand: arginine 13.2 mM
In short: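 Titrations with SNAP-549-labelled MS2 coat protein ran in twofold steps from 0.7 or 1.5 nM to 3 µM, each step taking 0.8–1.5 h at the start and 10–20 min toward the end. The targets were designed RNA switches transcribed on-chip from Illumina sequencing clusters, held in 100 mM Tris-HCl pH 7.5, 80 mM KCl, 4 mM MgCl2, without or with constant ligand. Apparent KD was taken per design as the median of normalised cluster binding-curve fits.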

Row | Sequence | apparent KD of MS2 coat protein
1 | ACAUGAAGAACAGCGGUGGGCGCGCUCGAUACCAGUACUUUGAUAUACCCUUGGCAGCGACAUGAGGAUCACCCAUGUGAGAUGA [XTheo A #2] | 16 nM
2 | UUUUUUAUUAUGGCGUAUCGGAAAACCGAUACCAGUACAGAAAUGUACCCUUGGCAGCGGCGUUUUACAUGAGGAUCACCCAUGU [Ex Theophylline A 5] | 12.4 nM
3 | CUAAAUAUAACGGCCGCCACUUACUCAUGAGGUAACAACAUGAGGAUCACCCAUGUUUGAGGAUCAAGGACCGGGUUAUAUUUAG [AstrosSSTry#22] | 26.5 nM
4 | AUAACAUGAGGAUCACCCAUGUAAGCUGAAGGAGCGCUGGAAACAGCAGGUAGGUCGCAGCAUGUUUCCAAUCCUCAUGGAAACA [(M1)-(M2)-(Arg1)-(Arg2)-(A)'-(M)'-(A)''_Design9] | 53.4 nM
5 | UAUCGGAACUGAAGGAGCGAGAUGACAAACAUGAGGAUCACCCAUGUUAUGGGUUGUUAAUCUCAGGUAGGUCGCAGUGGUAGCA [#27 Same State - Arginine B] | 52.7 nM
6 | CACGAAAGAUCGGCCGCCACUAUUUGAUGUGUUCUUUCACAUGAGGAUCACCCAUGUUCUUAUUAUAGGACCGGGAUUGAGCGUG [ETB #3] | 73.9 nM
7 | GGUUCCUCAACGGCCGCCACUUACUGGAUUAGUGGACCUACUUGCAACAUGAGGAUCACCCAUGUAAGGACCGGGUUGCUCCCAA [theeternabot_exclusion_MS2_Trp_B_34] | 46.9 nM
8 | UAUUUGGUGCGCGAGCGUUGGAUAAUUGAUACCAGUGAAGAAGAGCGCCCUUGGCAGCGAAUCCUAACAUGAGGAUCACCCAUGU [5.S] | 38.2 nM
9 | AUACCUAAUGUUACGUUUUCCUUUUCAGAUACCAGACUUUACGUUGUCCCUUGGCAGCUGUAUUACAUGAGGAUCACCCAUGUUG [JR_SSTheophyA_Sub008] | 19.8 nM
10 | GCUGCCAUACGAAGGAGCGCUGGUGUAGUGCGGCGAACAUGAGGAUCACCCAUGUGGCAGCAGCAGGUAGGUCGCGUAUGGCAGC [EAB #14] | 12.3 nM
11 | UGUGUCGUCUGAAGGAGCGGCCCUUGAUCCUCGUGAGACAUGAGGAUCACCCAUGUCUCGGGCCAGGUAGGUCGCAGGCGGCACA [#25 Exclusion - Arginine B] | 11.5 nM
12 | CCUAUGCAGUCGGCCGCCACUGAACAUGAGGAUCACCCAUGUAUAUAAAGAUCCUGAUAUAAUAACAGGACCGGGACUGUAUAGG [Ex Tryptophan B 10] | 39.2 nM
13 | UUGACAUGAGGAUCACCCAUGUUAGCGGAAGGAGCGCGGUAGUACGCAGGUAGGUCGCCGAGAACAGUGAUAGUUGUUCUCAUGU [X-ArgiA-ms2@4-1] | 27.6 nM
14 | UUUGAGAUAACAGAUACCAGCGUGUUAUAAAACAUGAGGAUCACCCAUGUAGUGAUCAAGCGCCCUUGGCAGCUGGUAUUUUAGG [7.G] | 70.3 nM
15 | ACAUUUAACUGAAGGAGCGUGAUAUUUACAUGAGGAUCACCCAUGUCUUUCAUGAAUAAUUCACAGGUAGGUCGCAGACUAAUGA [JR_ExcArginiB_Sub007] | 96.8 nM
16 | CGGAGUAUGACGGCCGCCACUUGCCGGGCGCAGCUGGCUGCUUGACAUGAGGAUCACCCAUGUCCAAGGACCGGGUCAUUCCUCG [theeternabot_sameState_MS2_Trp_B_37] | 59.4 nM
17 | GCACAAGAUGGAAGGAGCGCUGGGAAAGGUCACAUGAGGAUCACCCAUGUUCUCCUUGCCGAGCAGGUAGGUCGCCAUCUUGUGC [SSAB NP+V+V2 #2] | 30.4 nM
18 | GGAGGUACCCGAAGGAGCGACAUGAGGAUCACCCAUGUCUCCCGUUAUGGGAGUUCUUUAGGUCAGGUAGGUCGCGGGUACCUCC [#1 Exclusion - Arginine B Attempt #2 (Inspired by Omei)] | 79.3 nM

Row | Sequence | apparent KD of MS2 coat protein
19 | GGCCUGUGGUGCGAUACCAGCUUGAGUGUACUGGCCAGGUACAUGAGGAUCACCCAUGUAAGCCCUUGGCAGCGCGUCAGAGGCC [#1 Exclusion - Theophylline B Attempt #19 (HarryS)] | 13.5 nM
20 | GGCUGUUGCGAUUUGAAGCGGCAGCGUGAUACCAGAUGUAAGAGCGUCCCUUGGCAGCACGUUUACAUGAGGAUCACCCAUGUCA [Xerema] | 56.6 nM
21 | CCACUUUCUUUUAUCUUUCUUUCUUUGUUACGAGGACCGGUACGGCCGCCACUCGUGGUGUGUGGUACAUGAGGAUCACCCAUGU | 23.1 nM
22 | ACUUGAUACUGAAGGAGCGUCGGAUAAACUCGCACAUGAGGAUCACCCAUGUAUAUGAAUCGACAGGUAGGUCGCAGUAUCGAGU [Arg B SS t6] | 13 nM
23 | ACUUCAUGAGGUGAUACCAGCCAAUGACAUGAGGACAUGAGGAUCACCCAUGUUUAUGUAGGCCCUUGGCAGCACUGUAACAUGA [Same State Theophylline B 4] | 19.5 nM
24 | AUCCACAGCCGAAGGAGCGCUAGAAGAUGACAUGAGGAUCACCCAUGUGUGUGAUGUGGCUAGCAGGUAGGUCGCGGAGUGGAUU [Exclusion - Arginine B (Freestyle 12)] | 31.6 nM
25 | CGAAUACUGAGUGAUACCAGUGAAAGAUAACUGUAUACACAUGAGGAUCACCCAUGUACACACCCUUGGCAGCACACUAGAUCGA [Same State Theophylline B GF 2] | 25.8 nM
26 | GGGCCCGGGCGCGAGCCCGGGCCCAUUGAUACCAGUGAAUAUAUACGCCCUUGGCAGCGAAUCCUAACAUGAGGAUCACCCAUGU [5.B] | 34.8 nM
27 | AGCGUUCAGCUUAUACUGGACAAUGGGUGACGAGGACCGGUACGGCCGCCACUCGGGCGCCCGGUUACAUGAGGAUCACCCAUGU [Vedizaus] | 52.2 nM
28 | GAAUUUAUUUGAAGGAGCGUCGAAAAUGGGUAAACAUGAGGAUCACCCAUGUAAAGGGAACGACAGGUAGGUCGCAAAUGGAUUC [AstromonsSSArgB#27] | 126 nM
29 | UAUCCACAUGAGGAUCACCCAUGUAUGGAAGGAGCGGUGAAUGAACCAGGUAGGUCGCCAUGGUGAGGAUCAUCUAUGGAUUCGU [Exclusion - Arginine A (Freestyle 9)] | 30.3 nM
30 | UACAUGAGGAUCACCCAUGUAUAGAGGGAUACCAGUGUCAGUGAGCACCCUUGGCAGCCCGCGAACAAUGGGUGCGCUAAAUAGU [#19 Exclusion-TheophyllineA] | 23.2 nM
31 | GAUGAACUAUUCGAUACCAGACUACAUGAGGAUCACCCAUGUGUGUCAAUUUCUCAGUCAGUCCCUUGGCAGCGAAUAGUUUAUC [#26 Exclusion-TheophyllineB] | 53 nM
32 | CCGAACAUGAGGAUCACCCAUGUAUCCGAGCGAGGACCGGUACGGCCGCCACUCGAACUGCACCGGAAAAGGGAAACACCGAUCC [theeternabot_sameState_MS2_Trp_A_9] | 33.4 nM
33 | GCGAUACGUACUGAUACCAGAGACAUGAGGAUCACCCAUGUCCCAUGAUCAUACCUCAGACUCCCUUGGCAGCAGGAUAAGUGAG [Exclusion Theophylline B GF2] | 11.3 nM
34 | AAAUAUUACGGAAGGAGCGUCUCAUAUAUGAAACAUGAGGAUCACCCAUGUGAUAAUGAACGACAGGUAGGUCGCCGAUAAUUGA [JR_AAArginiB_Sub029] | 16.1 nM
35 | CUGCCUGCCUCACAUGAGGAUCACCCAUGUCGAGGACCGGUACGGCCGCCACUCGUCGUCGGUAAUACAGGCAUUGAAUAAUAUA [Esgeusla] | 9.88 nM
36 | ACCUGUACGAAAAGUGCAGGACACGGAAUACGAGGACCGGUACGGCCGCCACUCGGAAACCUGAGGAUCACCCUGGUAAACCGUG [TrypAS 12 #AlternativeMS2 #Zipper #StaticStem] | 26.9 nM
